Laboratory results published in article PMC12125310.
Where two headings read alike, the source gives them in different places.

B1: GA20ox3 Col probe (P8) (dsDNA)
DNA 1: TAAAAAATAAAAATGAAAAGTATCATGATA
DNA 2: TATCATGATACTTTTCATTTTTATTTTTTA
B2: GA20ox3 Tib probe (dsDNA)
DNA 1: TTTAAAAATAAAATAAAAAGTATCATGATA
DNA 2: TATCATGATACTTTTTATTTTATTTTTAAA

Columns and labels:
Test in all cases: EMSA
DOF6 (Col-0) = target: T1, DOF6 (Col-0) (Arabidopsis thaliana (Col-0), UniProt Q9M1E6 1-245)
T1 sequence: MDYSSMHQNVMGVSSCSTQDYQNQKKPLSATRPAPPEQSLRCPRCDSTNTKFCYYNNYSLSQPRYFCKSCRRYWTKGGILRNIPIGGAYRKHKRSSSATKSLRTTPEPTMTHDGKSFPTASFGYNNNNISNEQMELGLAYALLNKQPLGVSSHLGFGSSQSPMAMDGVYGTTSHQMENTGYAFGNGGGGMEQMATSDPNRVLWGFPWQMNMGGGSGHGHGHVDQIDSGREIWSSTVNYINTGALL

DOF6 (Col-0);RGL2 (Col) [1] = target: T2, DOF6 (Col-0);RGL2 (Col) (Arabidopsis thaliana …, UniProt Q9M1E6;Q8GXW1 1-245;1-547, |)
T2 sequence 1: T1 sequence
T2 sequence 2: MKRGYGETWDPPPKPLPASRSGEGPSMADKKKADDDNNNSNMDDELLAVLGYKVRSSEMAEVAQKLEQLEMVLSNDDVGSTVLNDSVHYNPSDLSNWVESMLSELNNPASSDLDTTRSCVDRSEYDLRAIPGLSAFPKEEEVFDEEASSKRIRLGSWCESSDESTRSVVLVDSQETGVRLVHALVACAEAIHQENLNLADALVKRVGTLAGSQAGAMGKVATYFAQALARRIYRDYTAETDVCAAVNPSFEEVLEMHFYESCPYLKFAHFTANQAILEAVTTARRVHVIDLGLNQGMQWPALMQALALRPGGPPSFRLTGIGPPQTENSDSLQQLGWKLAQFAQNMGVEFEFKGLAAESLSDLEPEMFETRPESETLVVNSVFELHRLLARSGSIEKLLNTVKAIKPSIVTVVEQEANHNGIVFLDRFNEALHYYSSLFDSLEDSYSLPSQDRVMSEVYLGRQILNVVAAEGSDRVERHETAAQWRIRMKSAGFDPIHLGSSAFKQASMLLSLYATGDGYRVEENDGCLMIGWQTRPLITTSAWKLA

RGL2 (Col) = target: T3, RGL2 (Col) (Arabidopsis thaliana (Col-0), UniProt Q8GXW1 1-547)
T3 sequence: T2 sequence 2

DOF6 (Col-0);RGL2 (Col) [2] = target: T2, DOF6 (Col-0);RGL2 (Col); remark: listed apart in the source

| Binder | binding result (DOF6 (Col-0)) | binding result (DOF6 (Col-0);RGL2 (Col) [1]) | binding result (RGL2 (Col)) | binding result (DOF6 (Col-0);RGL2 (Col) [2]) |
| --- | --- | --- | --- | --- |
| B1 | binds | binds | no binding |  |
| B2 | binds |  |  | binds |
